From patent US8975044B2, “Polynucleotides encoding for frizzled-binding agents and uses thereof” (OncoMed Pharmaceuticals, Inc., priority 2008, dated 2015)

T1: FZD8 (Homo sapiens, UniProt Q9H461)
T1 construct: Fc
T1 sequence (Q9H461 28-157 limits assumed): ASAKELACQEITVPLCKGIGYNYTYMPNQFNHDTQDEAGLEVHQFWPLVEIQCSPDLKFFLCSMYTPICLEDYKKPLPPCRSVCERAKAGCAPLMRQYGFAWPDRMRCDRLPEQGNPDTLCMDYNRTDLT

T2: FZD8 (Homo sapiens, UniProt Q9H461, H70A/Q71E)
T2 construct: N-terminus of the Fri domain of FZD8 in turn fused to the transmembrane domain and intracellular domain of CD4 protein; expressed in transfected cells; host or cells: HEK293
T2 sequence (Q9H461 28-158 H70A/Q71E): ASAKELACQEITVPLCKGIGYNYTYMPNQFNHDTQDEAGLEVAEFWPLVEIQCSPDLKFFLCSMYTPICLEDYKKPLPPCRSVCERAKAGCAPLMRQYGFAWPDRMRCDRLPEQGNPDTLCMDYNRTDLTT

T3: FZD8 (Homo sapiens, UniProt Q9H461, E68Q/V69L)
T3 construct: N-terminus of the Fri domain of FZD8 in turn fused to the transmembrane domain and intracellular domain of CD4 protein; expressed in transfected cells; host or cells: HEK293
T3 sequence (Q9H461 28-158 E68Q/V69L): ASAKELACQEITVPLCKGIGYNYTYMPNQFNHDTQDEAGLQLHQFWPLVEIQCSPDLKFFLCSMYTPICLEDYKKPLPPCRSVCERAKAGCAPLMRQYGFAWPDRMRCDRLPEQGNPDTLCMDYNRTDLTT

T4: FZD8 (Homo sapiens, UniProt Q9H461, G66A/L67A)
T4 construct: N-terminus of the Fri domain of FZD8 in turn fused to the transmembrane domain and intracellular domain of CD4 protein; expressed in transfected cells; host or cells: HEK293
T4 sequence (Q9H461 28-158 G66A/L67A): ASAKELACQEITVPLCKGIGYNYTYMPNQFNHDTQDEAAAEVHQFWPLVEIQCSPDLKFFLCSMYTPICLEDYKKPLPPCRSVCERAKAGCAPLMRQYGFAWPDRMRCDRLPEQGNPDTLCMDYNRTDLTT


Tests used:
Cytokeratin 7 = Cytokeratin 7 immunohistochemistry on treated C28 tumors; format: in vivo, Nod-Scid mice; conditions: tumors harvested after treatment, 15 mg/kg twice per week
Procedure: Following treatment of the animals in the experiment shown in FIG. 58, tumors were harvested, fixed in formalin, embedded in paraffin, and cut in 5 micron sections. Tumor sections were analyzed for Cytokeratin 7 expression, a marker of colon cell differentiation, by immunohistochemistry (Vectastain kit, Vector Labs). Cytokeratin 7 expression was seen to be elevated after treatment with 44R24 or 18R5 (FIG. 59).

Wnt target genes = assay: qPCR of Wnt target genes in liver of OMP-PN13-bearing mice; format: in vivo, NOD/SCID mice
Procedure: Frozen OMP-PN13 tumor cells that have been passaged twice in mice were obtained from Oncomed's tumor bank. They were thawed and injected subcutaneously into the left flank of NOD/SCID mice immediately following thawing. ˜ 25,000 viable cells were injected per animal. The mice were monitored weekly for tumor growth. After their onset, the size of the tumors was measured once weekly by caliper. 200-300 mm^3 tumor-bearing mice were dispatched in treatment groups that each contained 5 animals. […] Ab treatment was initiated the day after randomization. LZ1 was used as the negative control Ab. 3 doses of 10 mg/kg of Ab were administered via intra-peritoneal injection over a 12-day period. Mice were euthanized 24 hours after the last injection. Tumor, duodenum and liver were harvested.
Total RNAs were also extracted from tumor, duodenum and liver for Wnt target gene expression analyses using qPCR.
Tissues were immediately transferred into RNAlater (QIAGEN) at the time of harvest. RNA was extracted using the QIAGEN RNeasy for Fibrous Tissue mini kit according to the manufacturer instructions. 50 ng total RNA were submitted to gene expression analyses using ABI one-step RT-PCR protocol and reagents. GusB gene expression was used as endogenous control. Triplicates were setup for each sample. All 5 tumors of each treatment group were analyzed. ABI 7900 TaqMan machine was used to run the experiments. ABI SDS 2.2.1 software was used to analyze the data and calculate DeltaCt values that were converted into relative quantities. The triplicate values of all 5 tumors were averaged for each treatment group. Fold inhibition factors were then calculated relative to control antibody (LZ1).

FZD8 [1] = target: T1, FZD8; assay: Biacore affinity to recombinant Fzd Fc protein; format: binding; conditions: IgG antibody; Fzd Fc immobilized on CM5 Biacore chip
Procedure: The KDs of 18R8 and 18R5 antibodies were determined using the Biacore 2000 system from Biacore Lifescience (GE Healthcare). Specifically, purified anti-Fzd7 antibodies were serially diluted in 2-fold increments from 100 to 0.78 nM in HBS-P (0.01 M HEPES pH 7.4, 0.15 M NaCl, 0.005% v/v Surfactant P20). Each dilution was tested against recombinant Fzd Fc proteins immobilized onto a CM5 Biacore chip. The association and dissociation rates were measured and KD values determined using the Biaevaluation software program (Table 5, below).

FZD8 [2] = target: T2, FZD8; assay: Epitope mapping by FACS on FZD8 Fri domain variants on HEK293 cells; format: binding; conditions: residues 70-71 changed from HQ to AE
Procedure: (§1) To identify the FZD epitope recognized by the 18R8 IgG antibody, epitope mapping was performed. Flow cytometry analysis of cell surface expressed FZD was utilized to measure antibody binding. Mammalian expression plasmid vectors comprising a CMV promoter upstream of polynucleotides that encode an N-terminal signal sequence FLAG epitope tag fused to the N-terminus of the Fri domain of FZD8 in turn fused to the transmembrane domain and intracellular domain of CD4 protein were generated by standard recombinant technology. This expression construct allows expression of the FZD8 Fri domain on the cell surface, as well as expression of a FLAG epitope tag to monitor expression. Site-direct mutagenesis was then used to modify selected amino acids within the extracellular domain of FZD. HEK293 cells were co-transfected with expression vectors encoding the FZD and the transfection marker GFP. Forty-eight hours post-transfection, cells were collected in suspension and incubated on ice with anti-FZD antibody or control IgG to detect background antibody binding. The cells were washed and primary antibodies detected with anti-antibody secondary antibodies conjugated to a fluorescent chromophore. Labeled cells were then analyzed by flow cytometry to measure the binding of anti-FZD antibody to cell surface FZD.
(§2) Epitope mapping for the anti-FZD antibody 44R24 was performed in a manner similar to that described above in Example 5 for the antibodies 18R8 and 18R5. The ability of 44R24 to bind to a similar epitope as 18R8 was assessed by flow cytometry using a series of amino acid variants of FZD8 previously shown to disrupt binding of 18R8 (see Example 5 and FIGS. 6 and 7).

FZD8 [3] = target: T3, FZD8; assay: as above; format: binding; conditions: amino acids 68-69 mutated from EV to QL
Procedure: as §1, §2

FZD8 [4] = target: T4, FZD8; assay: as above; format: binding; conditions: amino acids 66-67 mutated from GL to AA
Procedure: as §1, §2

[5] = fold relative to control antibody LZ1, 3 doses of 10 mg/kg over 12 days

Row | Molecule | Cytokeratin 7 expression (Cytokeratin 7) | Liver Axin2 (Wnt target genes; [5]) [x] | Liver Rhbg (Wnt target genes; [5]) [x] | Kd (FZD8 [1]) [nM] | Liver GluI (Wnt target genes; [5]) [x] | Liver Lect2 (Wnt target genes; [5]) [x] | Liver Lgr5 (Wnt target genes; [5]) [x] | inhibition of Wnt target gene in liver (Wnt target genes; relative to LZ1) [×] | binding to FZD8 variant (FZD8 [2]) | binding to FZD8 variant (FZD8 [3]) | binding to FZD8 variant (FZD8 [4])
1 | 44R24: anti-FZD5/8 IgG antibody, VH SEQ ID NO:85, VL SEQ ID NO:86; ATCC deposit no. PTA-10311 (antibody, V domains shown, 44R24 VH; 44R24 VL, ATCC deposit no; PTA-10311) VH: EVQLVESGGGLVQPGGSLRLSCAASGFTFSSYYITWVRQAPGKGLEWVSTISYSSSNTYYADSVKGRFTISRDNSKNTLYLQMNSLRAEDTAVYYCARSIVFDYWGQGTLVTVSS VL: DIELTQPPSVSVAPGQTARISCSGDALGNRYVYWYQQKPGQAPVLVIPSGIPERFSGSNSGNTATLTISGTQAEDEADYYCGSWDTRPYPKYVFGGGTKLTVLG | elevated | −2.4 | −1.9 |  |  |  |  |  |  |  | 
2 | 18R5: human anti-FZD antibody; VH SEQ ID NO:10 (as 18R8), VL SEQ ID NO:14; binds FZD1, 2, 5, 7, 8 (antibody, V domains shown, 18R5/18R8 heavy chain variable region (VH); 18R5 light chain variable region (VL)) VH: EVQLVESGGGLVQPGGSLRLSCAASGFTFSHYTLSWVRQAPGKGLEWVSVISGDGSYTYYADSVKGRFTISSDNSKNTLYLQMNSLRAEDTAVYYCARNFIKYVFANWGQGTLVTVSS VL: DIELTQPPSVSVAPGQTARISCSGDNIGSFYVHWYQQKPGQAPVLVIYDKSNRPSGIPERFSGSNSGNTATLTISGTQAEDEADYYCQSYANTLSLVFGGGTKLTVLG | elevated |  |  | 5.8 | −19 | −8 | −26 | 8 | reduced staining | reduced staining | reduced staining
3 | 18R8: human anti-FZD antibody from phage display; VH SEQ ID NO:10, VL SEQ ID NO:12; binds FZD1, 2, 5, 7, 8 (antibody, V domains shown, 18R5/18R8 heavy chain variable region (VH); 18R8 light chain variable region (VL)) VH: EVQLVESGGGLVQPGGSLRLSCAASGFTFSHYTLSWVRQAPGKGLEWVSVISGDGSYTYYADSVKGRFTISSDNSKNTLYLQMNSLRAEDTAVYYCARNFIKYVFANWGQGTLVTVSS VL: DIELTQPPSVSVAPGQTARISCSGDKLGKKYASWYQQKPGQAPVLVIYEKDNRPSGIPERFSGSNSGNTATLTISGTQAEDEADYYCSSFAGNSLEVFGGGTKLTVLG |  |  |  | 29.3 |  |  |  |  | clearly diminished | similarly lost | similarly lost
